The source of these data is US20230321189.

This series addresses tropomyosin-receptor kinase B-full-length (TrkB-FL), endogenous rat, Q63604.

tropomyosin-receptor kinase B-full-length (TrkB-FL), endogenous rat, Q63604, sequence (Q63604 32-821): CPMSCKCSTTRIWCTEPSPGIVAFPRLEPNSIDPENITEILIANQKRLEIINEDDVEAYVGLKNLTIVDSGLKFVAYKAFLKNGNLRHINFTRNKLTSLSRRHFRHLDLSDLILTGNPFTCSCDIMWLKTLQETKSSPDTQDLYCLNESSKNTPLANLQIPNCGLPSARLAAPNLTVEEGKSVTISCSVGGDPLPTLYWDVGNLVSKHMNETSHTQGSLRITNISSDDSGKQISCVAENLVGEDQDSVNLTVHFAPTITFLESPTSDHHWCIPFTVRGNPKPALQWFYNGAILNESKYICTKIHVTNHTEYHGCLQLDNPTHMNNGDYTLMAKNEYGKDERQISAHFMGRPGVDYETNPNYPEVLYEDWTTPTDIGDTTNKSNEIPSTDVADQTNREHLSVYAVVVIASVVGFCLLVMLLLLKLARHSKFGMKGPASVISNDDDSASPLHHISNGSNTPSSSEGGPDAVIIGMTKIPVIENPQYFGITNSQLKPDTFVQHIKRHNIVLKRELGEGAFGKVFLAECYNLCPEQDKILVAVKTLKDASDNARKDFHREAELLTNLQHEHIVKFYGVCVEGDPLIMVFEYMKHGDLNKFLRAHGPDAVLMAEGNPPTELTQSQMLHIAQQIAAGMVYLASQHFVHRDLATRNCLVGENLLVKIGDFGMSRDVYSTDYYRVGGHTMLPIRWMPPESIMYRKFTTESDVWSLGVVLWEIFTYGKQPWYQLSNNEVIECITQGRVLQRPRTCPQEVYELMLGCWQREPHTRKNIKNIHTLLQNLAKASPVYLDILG

B1: purified rat m-calpain (protein)
chain: MAGIAMKLAKDREAAEGLGSHERAIKYLNQDYETLRNECLEAGALFQDPSFPALPSSLGFKELGPYSSKTRGIEWKRPTEICADPQFIIGGATRTDICQGALGDCWLLAAIASLTLNEEILARVVPLDQSFQENYAGIFHFQFWQYGEWVEVVVDDRLPTKDGELLFVHSAEGSEFWSALLEKAYAKINGCYEALSGGATTEGFEDFTGGIAEWYELRKPPPNLFKIIQKALEKGSLLGCSIDITSAADSEAVTYQKLVKGHAYSVTGAEEVESSGSLQKLIRIRNPWGQVEWTGKWNDNCPSWNTVDPEVRANLTERQEDGEFWMSFSDFLRHYSRLEICNLTPDTLTCDSYKKWKLTKMDGNWRRGSTAGGCRNYPNTFWMNPQYLIKLEEEDEDDEDGERGCTFLVGLIQKHRRRQRKMGEDMHTIGFGIYEVPEELTGQTNIHLSKNFFLTTRARERSDTFINLREVLNRFKLPPGEYVLVPSTFEPHKNGDFCIRVFSEKKADYQTVDDEIEANIEEIEANEEDIGDGFRRLFAQLAGEDAEISAFELQTILRRVLAKREDIKSDGFSIETCKIMVDMLDEDGSGKLGLKEFYILWTKIQKYQKIYREIDVDRSGTMNSYEMRKALEEAGFKLPCQLHQVIVARFADDELIIDFDNFVRCLVRLEILFKIFKQLDPENTGTIQLDLISWLSFSVL
Turning to B1, the “TrkB-FL protein levels and TrkB-ICD formation in DIV8 neuronal cultures lysate (western blot, enzyme cleavage)” value is “decrease of TrkB-FL protein levels with concomitant TrkB-ICD formation when both exogenous m-calpain (1 or 2 EU) and CaCl2 (2 mM) were added”; the “TrkB-FL protein levels and TrkB-ICD formation in adult rat brain cortex homogenate (western blot, enzyme cleavage)” value was “decrease of TrkB-FL protein levels with concomitant TrkB-ICD formation when both exogenous m-calpain (1 or 2 enzymatic units, EU) and CaCl2 (2 mM) were added”.
